Data on eight molecules can be found in US20140087995A1 (published 2014).

Numbered stars: 1 amine (or outer) side, 2 acyl side, 3 side chain; on linkers, the order of the positions; unused ones are H or OH. Bridge positions count the residues as written; N and C are the ends. * marks the point of attachment. C20 diacid = O=C(O)CCCCCCCCCCCCCCCCCCC(=O)*; γGlu = O=C(O)[C@H](CCC(=O)[*:2])N[*:1]

In assay [1] the target is T1, human calcitonin receptor (human, UniProt P30988 25-474).
T1 construct: whole, on cells; Assay used cell membranes of the transfected BHK cells; also called hCTR; hCT
T1 sequence (looked up): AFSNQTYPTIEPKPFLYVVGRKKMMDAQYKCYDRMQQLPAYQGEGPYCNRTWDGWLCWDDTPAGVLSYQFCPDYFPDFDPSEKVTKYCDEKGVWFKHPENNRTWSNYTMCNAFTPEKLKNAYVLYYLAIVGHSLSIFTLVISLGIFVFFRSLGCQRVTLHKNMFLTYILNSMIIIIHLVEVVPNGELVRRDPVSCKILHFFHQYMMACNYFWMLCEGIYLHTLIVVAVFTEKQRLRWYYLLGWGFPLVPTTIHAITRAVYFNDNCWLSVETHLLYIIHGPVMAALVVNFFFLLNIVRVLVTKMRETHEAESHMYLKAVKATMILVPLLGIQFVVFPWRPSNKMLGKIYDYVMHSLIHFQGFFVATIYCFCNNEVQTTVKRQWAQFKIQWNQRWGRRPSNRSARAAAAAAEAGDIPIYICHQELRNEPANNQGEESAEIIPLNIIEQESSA
In words: SPA radioligand competition (125I-calcitonin), membranes of BHK cells with human calcitonin receptor. In outline: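 BHK hCTR membranes 35 ng/μL + SPA beads 0.05 mg/well; buffer 50 mM Hepes pH 7.4, 1 mM CaCl2, 5 mM MgCl₂, 0.1% OA, 0.02% Tween20. 120 min, 25° C., shaking. Scintillation count; IC50 by one-site binding competition.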

The target of assay [2] is T1, human calcitonin receptor. In words: ratio IC50 hCTR / IC50 hAmylin-R of the two SPA competition assays; reference: human amylin receptor. How it is done: The resulting pellet was resuspended, homogenized and centrifuged (20.000 rpm, 15 min) in a buffer containing 20 mM Na-HEPES and 0.1 mM EDTA (pH 7.4, buffer 2). The resulting pellet was resuspended in buffer 2 and protein concentration was measured (BCA protein Assay, Pierce). The homogenate was kept cold during the whole procedure. The membranes were kept at −80° C. until use. The assay was performed in a 384 well Optiplate (PerkinElmer) in a total volume of 40 ul. Membranes were mixed with SPA beads. Final concentration of membranes 35 ng/μL final and SPA beads was 0.05 mg/well. Test-compounds were dissolved in DMSO and further diluted in assay buffer (50 mM Hepes, pH 7.4, 1 mM CaCl2, 5 mM MgCl₂, 0.1% OA and 0.02% Tween20). […] The final mixture was incubated with shaking at 400 rpm for 120 min at 25° C. prior to centrifugation (1500 rpm, 10 min). Samples were analyzed on TopCounter™ (Packard). The IC₅₀ was calculated using (one site binding competition analysis) GraphPad Prism5 as a measure of receptor affinity.
Membranes were prepared in the following way; the cells were rinsed with PBS and incubated with Versene for approximately 5 min before harvesting. The cells were flushed with PBS and the cell-suspension was centrifuged for 5 min at 1000 rpm. Cells were homogenized (Ultrathurrax) in a buffer containing 20 mM Na-HEPES and 10 mM EDTA (pH 7.4) and centrifuged at 20.000 rpm for 15 min. The resulting pellet was resuspended, homogenized and centrifuged (20.000 rpm, 15 min) in a buffer containing 20 mM Na-HEPES and 0.1 mM EDTA (pH 7.4, buffer 2). The resulting pellet was resuspended in buffer 2 and protein concentration was measured (BCA protein Assay, Pierce). The homogenate was kept cold during the whole procedure. The membranes were kept at −80° C. until use. Assay was performed in a 384 well Optiplate (PerkinElmer) in a total volume of 40 ul. Membranes were mixed with SPA beads.

B1: N^α1-[2-[2-[2-[[2-[2-[2-[[(4S)-4-carboxy-4-(19-carboxynonadecanoylamino)butanoyl]amino]ethoxy]ethoxy]acetyl]amino]ethoxy]ethoxy]acetyl]-[Glu14,Arg17,Pro21,Pro27 … (peptide)
peptide: KCNTATCATQRLAEFLRHSSPNFGAIPSSTNVGSNTY
modifications: C20 diacid-gGlu-2xOEG on the alpha amino group of the N-terminal residue (Lys1); disulfide Cys2-Cys7; C-terminal amide
notes: Synthetic analogue; also called compound 19
By IC50 is commonly meant the concentration at which inhibition is half-maximal. Take B1: in assay [1], the IC50 worked out at 20.4 nM. Besides, the “Ratio hCT/hAmylin binding” value in assay [2] came out at 36.7.

B2: N^α1-[(4S)-4-carboxy-4-(19-carboxynonadecanoylamino)butanoyl]-[Arg17,Pro21,Pro27,Glu35]-h-amylin (peptide)
peptide: KCNTATCATQRLANFLRHSSPNFGAIPSSTNVGSETY
modifications: C20 diacid-gGlu on the alpha amino group of the N-terminal residue (Lys1); disulfide Cys2-Cys7; C-terminal amide
notes: Synthetic analogue; also called compound 23
B2: the IC50 in assay [1] was found to be 21.8 nM. In addition, the “Ratio hCT/hAmylin binding” value in assay [2] turned out to be 25.

B3: N^α1-[(4S)-4-carboxy-4-(19-carboxynonadecanoylamino)butanoyl]-[Arg17,Pro21,Pro27,Pro34,Glu35]-h-amylin (peptide)
peptide: {C20 diacid-γGlu}-KCNTATCATQRLANFLRHSSPNFGAIPSSTNVGPETY-NH2
modifications: disulfide 2-7
SMILES: CC[C@H](C)[C@H](NC(=O)[C@H](C)NC(=O)CNC(=O)[C@H](Cc1ccccc1)NC(=O)[C@H](CC(N)=O)NC(=O)[C@@H]1CCCN1C(=O)[C@H](CO)NC(=O)[C@H](CO)NC(=O)[C@H](Cc1c[nH]cn1)NC(=O)[C@H](CCCNC(=N)N)NC(=O)[C@H](CC(C)C)NC(=O)[C@H](Cc1ccccc1)NC(=O)[C@H](CC(N)=O)NC(=O)[C@H](C)NC(=O)[C@H](CC(C)C)NC(=O)[C@H](CCCNC(=N)N)NC(=O)[C@H](CCC(N)=O)NC(=O)[C@@H](NC(=O)[C@H](C)NC(=O)[C@@H]1CSSC[C@H](NC(=O)[C@H](CCCCN)NC(=O)CC[C@H](NC(=O)CCCCCCCCCCCCCCCCCCC(=O)O)C(=O)O)C(=O)N[C@@H](CC(N)=O)C(=O)N[C@@H]([C@@H](C)O)C(=O)N[C@@H](C)C(=O)N[C@@H]([C@@H](C)O)C(=O)N1)[C@@H](C)O)C(=O)N1CCC[C@H]1C(=O)N[C@@H](CO)C(=O)N[C@@H](CO)C(=O)N[C@H](C(=O)N[C@@H](CC(N)=O)C(=O)N[C@H](C(=O)NCC(=O)N1CCC[C@H]1C(=O)N[C@@H](CCC(=O)O)C(=O)N[C@H](C(=O)N[C@@H](Cc1ccc(O)cc1)C(N)=O)[C@@H](C)O)C(C)C)[C@@H](C)O
notes: Synthetic analogue; also called compound 29
Regarding B3, the IC50 in assay [1] is 8.01 nM. Moreover, the “Ratio hCT/hAmylin binding” value in assay [2] turned out to be 13.9.

B4: N^α1-[(4S)-4-carboxy-4-(19-carboxynonadecanoylamino)butanoyl]-[Glu14,Arg17,Pro21,Pro26]-h-amylin (peptide)
peptide: {C20 diacid-γGlu}-KCNTATCATQRLAEFLRHSSPNFGAPLSSTNVGSNTY-NH2
modifications: disulfide 2-7
SMILES: CC(C)C[C@H](NC(=O)[C@H](CCCNC(=N)N)NC(=O)[C@H](CCC(N)=O)NC(=O)[C@@H](NC(=O)[C@H](C)NC(=O)[C@@H]1CSSC[C@H](NC(=O)[C@H](CCCCN)NC(=O)CC[C@H](NC(=O)CCCCCCCCCCCCCCCCCCC(=O)O)C(=O)O)C(=O)N[C@@H](CC(N)=O)C(=O)N[C@@H]([C@@H](C)O)C(=O)N[C@@H](C)C(=O)N[C@@H]([C@@H](C)O)C(=O)N1)[C@@H](C)O)C(=O)N[C@@H](C)C(=O)N[C@@H](CCC(=O)O)C(=O)N[C@@H](Cc1ccccc1)C(=O)N[C@@H](CC(C)C)C(=O)N[C@@H](CCCNC(=N)N)C(=O)N[C@@H](Cc1c[nH]cn1)C(=O)N[C@@H](CO)C(=O)N[C@@H](CO)C(=O)N1CCC[C@H]1C(=O)N[C@@H](CC(N)=O)C(=O)N[C@@H](Cc1ccccc1)C(=O)NCC(=O)N[C@@H](C)C(=O)N1CCC[C@H]1C(=O)N[C@@H](CC(C)C)C(=O)N[C@@H](CO)C(=O)N[C@@H](CO)C(=O)N[C@H](C(=O)N[C@@H](CC(N)=O)C(=O)N[C@H](C(=O)NCC(=O)N[C@@H](CO)C(=O)N[C@@H](CC(N)=O)C(=O)N[C@H](C(=O)N[C@@H](Cc1ccc(O)cc1)C(N)=O)[C@@H](C)O)C(C)C)[C@@H](C)O
notes: Synthetic analogue; also called compound 7
Take B4: in assay [1], the IC50 worked out at 11.1 nM. In assay [2], the “Ratio hCT/hAmylin binding” value came to 16.5.

B5: N^α1-[(4S)-4-carboxy-4-(19-carboxynonadecanoylamino)butanoyl]-[Arg17,Pro21,Pro27,His34]-h-amylin (peptide)
peptide: KCNTATCATQRLANFLRHSSPNFGAIPSSTNVGHNTY
modifications: C20 diacid-gGlu on the alpha amino group of the N-terminal residue (Lys1); disulfide Cys2-Cys7; C-terminal amide
notes: Synthetic analogue; also called compound 40
On to B5, for which, in assay [1], the IC50 was 17.1 nM. Moreover, in assay [2], the “Ratio hCT/hAmylin binding” value worked out at 31.1.

B6: N^α1-[(4S)-4-carboxy-4-(19-carboxynonadecanoylamino)butanoyl]-[Arg17,Pro21,Pro27,Arg34]-h-amylin (peptide)
peptide: KCNTATCATQRLANFLRHSSPNFGAIPSSTNVGRNTY
modifications: C20 diacid-gGlu on the alpha amino group of the N-terminal residue (Lys1); disulfide Cys2-Cys7; C-terminal amide
notes: Synthetic analogue; also called compound 39
As to B6, the IC50 in assay [1] worked out at 19.3 nM. For the same molecule, the “Ratio hCT/hAmylin binding” value in assay [2] is 29.

B7: N^α1-[(4S)-4-carboxy-4-(19-carboxynonadecanoylamino)butanoyl]-[Arg17,Pro21,Pro27,Pro31,Glu35]-h-amylin (peptide)
peptide: {C20 diacid-γGlu}-KCNTATCATQRLANFLRHSSPNFGAIPSSTPVGSETY-NH2
modifications: disulfide 2-7
SMILES: CC[C@H](C)[C@H](NC(=O)[C@H](C)NC(=O)CNC(=O)[C@H](Cc1ccccc1)NC(=O)[C@H](CC(N)=O)NC(=O)[C@@H]1CCCN1C(=O)[C@H](CO)NC(=O)[C@H](CO)NC(=O)[C@H](Cc1c[nH]cn1)NC(=O)[C@H](CCCNC(=N)N)NC(=O)[C@H](CC(C)C)NC(=O)[C@H](Cc1ccccc1)NC(=O)[C@H](CC(N)=O)NC(=O)[C@H](C)NC(=O)[C@H](CC(C)C)NC(=O)[C@H](CCCNC(=N)N)NC(=O)[C@H](CCC(N)=O)NC(=O)[C@@H](NC(=O)[C@H](C)NC(=O)[C@@H]1CSSC[C@H](NC(=O)[C@H](CCCCN)NC(=O)CC[C@H](NC(=O)CCCCCCCCCCCCCCCCCCC(=O)O)C(=O)O)C(=O)N[C@@H](CC(N)=O)C(=O)N[C@@H]([C@@H](C)O)C(=O)N[C@@H](C)C(=O)N[C@@H]([C@@H](C)O)C(=O)N1)[C@@H](C)O)C(=O)N1CCC[C@H]1C(=O)N[C@@H](CO)C(=O)N[C@@H](CO)C(=O)N[C@H](C(=O)N1CCC[C@H]1C(=O)N[C@H](C(=O)NCC(=O)N[C@@H](CO)C(=O)N[C@@H](CCC(=O)O)C(=O)N[C@H](C(=O)N[C@@H](Cc1ccc(O)cc1)C(N)=O)[C@@H](C)O)C(C)C)[C@@H](C)O
notes: Synthetic analogue; also called compound 28
B7: the IC50 in assay [1] is 12.5 nM. Moreover, the “Ratio hCT/hAmylin binding” value in assay [2] came to 20.5.

B8: N^α1-[(4S)-4-carboxy-4-(19-carboxynonadecanoylamino)butanoyl]-[Glu14,Arg17,Pro21,Pro27,Arg35]-h-amylin (peptide)
peptide: {C20 diacid-γGlu}-KCNTATCATQRLAEFLRHSSPNFGAIPSSTNVGSRTY-NH2
modifications: disulfide 2-7
SMILES: CC[C@H](C)[C@H](NC(=O)[C@H](C)NC(=O)CNC(=O)[C@H](Cc1ccccc1)NC(=O)[C@H](CC(N)=O)NC(=O)[C@@H]1CCCN1C(=O)[C@H](CO)NC(=O)[C@H](CO)NC(=O)[C@H](Cc1c[nH]cn1)NC(=O)[C@H](CCCNC(=N)N)NC(=O)[C@H](CC(C)C)NC(=O)[C@H](Cc1ccccc1)NC(=O)[C@H](CCC(=O)O)NC(=O)[C@H](C)NC(=O)[C@H](CC(C)C)NC(=O)[C@H](CCCNC(=N)N)NC(=O)[C@H](CCC(N)=O)NC(=O)[C@@H](NC(=O)[C@H](C)NC(=O)[C@@H]1CSSC[C@H](NC(=O)[C@H](CCCCN)NC(=O)CC[C@H](NC(=O)CCCCCCCCCCCCCCCCCCC(=O)O)C(=O)O)C(=O)N[C@@H](CC(N)=O)C(=O)N[C@@H]([C@@H](C)O)C(=O)N[C@@H](C)C(=O)N[C@@H]([C@@H](C)O)C(=O)N1)[C@@H](C)O)C(=O)N1CCC[C@H]1C(=O)N[C@@H](CO)C(=O)N[C@@H](CO)C(=O)N[C@H](C(=O)N[C@@H](CC(N)=O)C(=O)N[C@H](C(=O)NCC(=O)N[C@@H](CO)C(=O)N[C@@H](CCCNC(=N)N)C(=O)N[C@H](C(=O)N[C@@H](Cc1ccc(O)cc1)C(N)=O)[C@@H](C)O)C(C)C)[C@@H](C)O
notes: Synthetic analogue; also called compound 16
With B8, the IC50 in assay [1] was found to be 17.1 nM. The “Ratio hCT/hAmylin binding” value in assay [2] came out at 19.1.
